B1: peptide HD2 (from tick evasin EVA4) / CCL1 (biotinylated, synthetic) (parent complex)
chain 1: EEDDYTAYAPLTCYFT
chain 2: KSMQVPFSRCCFSFAEQEIPLRAILCYRNTSSICSNEGLIFKLKRGKEACALDTVGWVQRHRKMLRHCPSKRK
B2: peptide HD2 (from tick evasin EVA4) / CCL18 (biotinylated, synthetic) (parent complex)
chain 1: EEDDYTAYAPLTCYFT
chain 2: AQVGTNKELCCLVYTSWQIPQKFIVDYSETSPQCPKPGVILLTKRGRQICADPNKKWVQKYISDLKLNA

Variants of: B1

Variant | enrichment
chain 1 A9W | -3 log2 (difference from the parental peptide)
chain 1 F15Q | 0.462 log2 (difference from the parental peptide)
chain 1 Y14H | -5.22 log2 (difference from the parental peptide)
chain 1 E2W | -0.836 log2 (difference from the parental peptide)
chain 1 C13F | -7.86 log2 (difference from the parental peptide)
chain 1 A7K | 2.4 log2 (difference from the parental peptide)
chain 1 A7V | -4.61 log2 (difference from the parental peptide)
chain 1 D3H | -3.87 log2 (difference from the parental peptide)
chain 1 F15M | 1.5 log2 (difference from the parental peptide)
chain 1 D4E | -2.17 log2 (difference from the parental peptide)
chain 1 Y5N | -6.94 log2 (difference from the parental peptide)
chain 1 E2P | -5.28 log2 (difference from the parental peptide)
chain 1 F15I | 2.23 log2 (difference from the parental peptide)
chain 1 A7P | -0.46 log2 (difference from the parental peptide)
chain 1 F15P | -0.0179 log2 (difference from the parental peptide)
chain 1 A9T | -4.64 log2 (difference from the parental peptide)
chain 1 A9V | -7.56 log2 (difference from the parental peptide)
chain 1 Y8W | -3.69 log2 (difference from the parental peptide)
chain 1 T6K | -3.59 log2 (difference from the parental peptide)
chain 1 T6R | -1.22 log2 (difference from the parental peptide)
chain 1 T12Q | -2.05 log2 (difference from the parental peptide)
chain 1 E2R | -4.77 log2 (difference from the parental peptide)
chain 1 Y8D | -6.77 log2 (difference from the parental peptide)

Variants of: B2

Variant | enrichment
chain 1 A7N | -0.0931 log2 (difference from the parental peptide)
chain 1 D3M | -1.4 log2 (difference from the parental peptide)
chain 1 F15A | 0.456 log2 (difference from the parental peptide)
chain 1 T6V | -3.07 log2 (difference from the parental peptide)
chain 1 L11H | 0.897 log2 (difference from the parental peptide)
chain 1 T6E | 2.48 log2 (difference from the parental peptide)
chain 1 D3W | -1.95 log2 (difference from the parental peptide)
chain 1 E1A | -0.823 log2 (difference from the parental peptide)
chain 1 T12N | -1.81 log2 (difference from the parental peptide)
chain 1 L11W | 0.64 log2 (difference from the parental peptide)
chain 1 F15G | -4.09 log2 (difference from the parental peptide)
chain 1 Y14G | -8.38 log2 (difference from the parental peptide)
chain 1 T16F | -0.482 log2 (difference from the parental peptide)
chain 1 Y14H | -1.38 log2 (difference from the parental peptide)
chain 1 T12S | -1.43 log2 (difference from the parental peptide)
chain 1 L11C | 1.6 log2 (difference from the parental peptide)
chain 1 D4P | -1.34 log2 (difference from the parental peptide)
chain 1 Y8V | -2.87 log2 (difference from the parental peptide)
chain 1 D4K | -2.75 log2 (difference from the parental peptide)
chain 1 Y5Q | -2.39 log2 (difference from the parental peptide)
chain 1 Y14M | -2.78 log2 (difference from the parental peptide)
chain 1 T16N | 0.14 log2 (difference from the parental peptide)
chain 1 L11K | -1.3 log2 (difference from the parental peptide)
chain 1 E2N | -3.02 log2 (difference from the parental peptide)
chain 1 T6F | -2.21 log2 (difference from the parental peptide)
chain 1 Y14E | -4.21 log2 (difference from the parental peptide)

Variant | enrichment
chain 1 P10F | -9.61 log2 (difference from the parental peptide)
chain 1 E1I | -1.17 log2 (difference from the parental peptide)
chain 1 T16K | -0.439 log2 (difference from the parental peptide)
chain 1 Y5L | -0.851 log2 (difference from the parental peptide)
chain 1 E2S | -2.49 log2 (difference from the parental peptide)
chain 1 C13I | -5.57 log2 (difference from the parental peptide)
chain 1 T6I | -4.4 log2 (difference from the parental peptide)
chain 1 A7Y | -0.717 log2 (difference from the parental peptide)
chain 1 Y5D | -3.92 log2 (difference from the parental peptide)
chain 1 L11N | -3.89 log2 (difference from the parental peptide)
chain 1 A7M | 2.23 log2 (difference from the parental peptide)
chain 1 D3E | 0.978 log2 (difference from the parental peptide)
chain 1 D4S | -2.31 log2 (difference from the parental peptide)
chain 1 D3I | -2.12 log2 (difference from the parental peptide)
chain 1 Y14W | -1.23 log2 (difference from the parental peptide)
chain 1 Y8D | -6.74 log2 (difference from the parental peptide)
chain 1 Y8P | -3.81 log2 (difference from the parental peptide)
chain 1 T12E | -0.867 log2 (difference from the parental peptide)
chain 1 F15Q | -0.376 log2 (difference from the parental peptide)
chain 1 Y8F | 2.01 log2 (difference from the parental peptide)
chain 1 P10D | -2.21 log2 (difference from the parental peptide)
chain 1 A7T | -0.452 log2 (difference from the parental peptide)
chain 1 T12A | -0.729 log2 (difference from the parental peptide)
chain 1 L11R | -0.679 log2 (difference from the parental peptide)
chain 1 E2V | -1.58 log2 (difference from the parental peptide)
chain 1 T12F | -0.316 log2 (difference from the parental peptide)
